Literature values, collected in publication PMC7702019 (ACS chemical biology, 2020).
Bridges are numbered along the chain shown (N, C = ends). Where no end group is shown, it is not given here.

Details: for amyloidogenicity: under normal conditions, rat and mouse amylin

In the case of “mouse amylin: identical sequence to rat amylin”, the amyloidogenicity is listed as “not amyloidogenic under normal conditions”.

For “H18R: H18R substitution of human amylin (literature) (KCNTATCATQRLANFLVRSSNNFGAILSSTNVGSNTY; ends and bridges not checked; cysteine pairing not given here; UniProt P10997 34-70, looked up, variant H18R)”, the “rate of amyloid formation in vitro” value (substitution in human amylin, in vitro) is given as “reduces the rate of amyloid formation”.

In the case of “Pramlintide: triple mutant of human amylin with A25, S28, and S29 replaced by Pro (KCNTATCATQRLANFLVHSSNNFGPILPPTNVGSNTY-NH2; disulfide 2-7; UniProt P10997 34-70, looked up, variant A25P S28P S29P)”, the amyloidogenicity in vitro (pramlintide, reference not given) is listed as “not amyloidogenic in vitro, except at high concentrations”.

In the case of “bovine amylin: bovine amylin (CGTATCETQRLANFLAPSSNKLGAIFSPTKMGSNTY; ends and bridges not checked; cysteine pairing not given here; UniProt Q28207 37-72, looked up)”, the “amyloidogenicity relative to human amylin” value (porcine and bovine amylin) is listed as “much less amyloidogenic than human amylin”.

In the case of “rat amylin: contains prolines at position 25, 28, and 29 and a H18R replacement relative to human amylin”, the “amyloid formation in vitro” value (in vitro, reference not given) is listed as “form amyloid in vitro, but only at very high non-physiological conditions” and the amyloidogenicity is listed as “not amyloidogenic under normal conditions”.
